Assay results: patent US20120114557A1 (published 2012)
Bridge positions count the residues as written; N and C are the ends. Primed or numbered codes have the meaning given here. Side chains are listed from the residue outwards. Ends that are not written are not given here. Gd^T″ = GdDTPA-thiourea; Gd^ = not defined here

Experiments:
human collagen type I [1] = target: T1, human collagen type I (human, UniProt P02452 162-1218; P08123 80-1119); assay: dried collagen assay, 5 uM peptide
T1 construct: biotinylated collagen I in the phage ELISA; also called dried human collagen; Collagen I
Description: An additional 90 μL is reserved in a HPLC glass vial as a measure of the total concentration.

rat collagen type I = target: T2, rat collagen type I (rat, UniProt P02454 152-1207; P02466 86-1125); assay: dried collagen assay, 5 uM peptide
T2 construct: rat tail, Upstate 08-115; gelled and dried in wells; also called dried rat collagen; rat collagen (acid soluble, type I, rat tail)
Description: (§2) For the final assay, a 1:10 volume of 10×PBS (100 mM NaH₂PO₄, 1.5 M NaCl pH 7.4) is added to the collagen solution (final 1×PBS) and incubated at 37° C. for 2 hours. The gelation is typically 90%.

human collagen type I [2] = target: T1, human collagen type I; assay: dried collagen assay, 5 uM peptide; remark: listed apart in the source
Description: as §2

[3] = target: T3, human collagen (acid soluble, extracted from placenta; type I) (human, UniProt P02452 162-1218; P08123 80-1119); assay: dried collagen assay, 5 uM each, 37 C, pH 7.4
T3 construct: mature; Tissue-extracted collagen; also called human collagen type I
Description: (§1) For the final assay, a 1:10 volume of 10×PBS (100 mM NaH₂PO₄, 1.5 M NaCl pH 7.4) is added to the collagen solution (final 1×PBS) and incubated at 37° C. for 2 hours.

[4] = target: T4, rat collagen (acid soluble, type I, rat tail) (rat, UniProt P02454 152-1207; P02466 86-1125); assay: dried collagen assay, 5 uM each, 37 C, pH 7.4
T4 construct: mature; Tissue-extracted collagen; also called rat collagen type I
Description: as §1

T1 sequence (P02452 162-1218 limits assumed, chain 1 of 2): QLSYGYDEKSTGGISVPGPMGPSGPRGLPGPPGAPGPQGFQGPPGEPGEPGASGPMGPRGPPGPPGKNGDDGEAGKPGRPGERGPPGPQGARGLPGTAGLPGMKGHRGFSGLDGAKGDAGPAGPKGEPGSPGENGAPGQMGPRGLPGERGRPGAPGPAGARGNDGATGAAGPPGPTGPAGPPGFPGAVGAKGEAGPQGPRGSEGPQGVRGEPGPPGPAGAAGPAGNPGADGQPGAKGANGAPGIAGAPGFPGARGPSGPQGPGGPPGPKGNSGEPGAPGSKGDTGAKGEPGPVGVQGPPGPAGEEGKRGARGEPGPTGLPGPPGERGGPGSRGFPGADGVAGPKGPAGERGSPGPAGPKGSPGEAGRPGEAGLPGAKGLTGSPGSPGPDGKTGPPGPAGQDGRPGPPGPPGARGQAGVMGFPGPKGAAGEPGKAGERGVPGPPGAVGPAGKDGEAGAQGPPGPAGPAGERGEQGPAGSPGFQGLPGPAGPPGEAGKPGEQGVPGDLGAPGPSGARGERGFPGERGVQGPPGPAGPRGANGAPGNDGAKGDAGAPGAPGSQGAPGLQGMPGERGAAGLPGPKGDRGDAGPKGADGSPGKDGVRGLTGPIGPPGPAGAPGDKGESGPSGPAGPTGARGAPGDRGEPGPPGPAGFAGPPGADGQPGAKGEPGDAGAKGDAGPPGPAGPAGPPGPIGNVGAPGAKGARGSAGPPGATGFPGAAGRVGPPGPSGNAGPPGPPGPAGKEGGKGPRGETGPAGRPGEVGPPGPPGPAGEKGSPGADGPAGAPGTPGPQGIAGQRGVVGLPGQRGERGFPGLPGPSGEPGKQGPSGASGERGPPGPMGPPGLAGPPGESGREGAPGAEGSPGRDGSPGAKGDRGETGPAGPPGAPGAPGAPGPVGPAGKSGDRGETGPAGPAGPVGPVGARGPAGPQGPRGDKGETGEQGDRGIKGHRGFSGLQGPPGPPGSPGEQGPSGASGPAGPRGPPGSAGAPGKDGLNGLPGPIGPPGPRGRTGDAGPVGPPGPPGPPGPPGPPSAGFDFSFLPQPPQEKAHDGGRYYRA
T1 sequence (P08123 80-1119 limits assumed, chain 2 of 2): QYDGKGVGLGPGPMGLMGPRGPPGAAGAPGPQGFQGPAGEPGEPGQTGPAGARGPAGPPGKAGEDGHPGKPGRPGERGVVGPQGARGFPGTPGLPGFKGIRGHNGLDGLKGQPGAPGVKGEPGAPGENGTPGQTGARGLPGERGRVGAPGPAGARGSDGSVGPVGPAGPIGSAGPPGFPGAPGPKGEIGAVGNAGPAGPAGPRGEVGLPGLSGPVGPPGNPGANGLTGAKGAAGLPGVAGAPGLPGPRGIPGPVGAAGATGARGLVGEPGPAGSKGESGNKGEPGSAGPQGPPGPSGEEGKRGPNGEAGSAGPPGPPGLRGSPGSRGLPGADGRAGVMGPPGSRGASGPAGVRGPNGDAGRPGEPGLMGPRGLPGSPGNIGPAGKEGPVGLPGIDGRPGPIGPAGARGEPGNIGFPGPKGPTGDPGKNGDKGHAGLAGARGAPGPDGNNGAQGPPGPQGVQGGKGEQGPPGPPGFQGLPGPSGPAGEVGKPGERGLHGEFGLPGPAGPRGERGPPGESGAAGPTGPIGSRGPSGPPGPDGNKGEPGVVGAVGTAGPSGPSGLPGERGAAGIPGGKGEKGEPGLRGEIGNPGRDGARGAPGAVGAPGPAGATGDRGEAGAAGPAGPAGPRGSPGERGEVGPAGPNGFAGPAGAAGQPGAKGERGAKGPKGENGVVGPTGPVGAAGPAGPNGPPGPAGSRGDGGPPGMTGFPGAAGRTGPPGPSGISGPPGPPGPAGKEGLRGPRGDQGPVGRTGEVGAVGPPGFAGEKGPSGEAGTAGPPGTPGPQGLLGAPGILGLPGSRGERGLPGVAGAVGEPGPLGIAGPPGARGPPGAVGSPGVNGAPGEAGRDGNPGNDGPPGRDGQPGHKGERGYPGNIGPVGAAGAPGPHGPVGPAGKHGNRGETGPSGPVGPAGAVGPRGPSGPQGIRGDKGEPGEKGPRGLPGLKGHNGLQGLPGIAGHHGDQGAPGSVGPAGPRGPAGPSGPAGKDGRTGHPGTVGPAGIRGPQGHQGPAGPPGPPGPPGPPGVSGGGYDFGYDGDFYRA
T4 sequence (P02454 152-1207, chain 1 of 2): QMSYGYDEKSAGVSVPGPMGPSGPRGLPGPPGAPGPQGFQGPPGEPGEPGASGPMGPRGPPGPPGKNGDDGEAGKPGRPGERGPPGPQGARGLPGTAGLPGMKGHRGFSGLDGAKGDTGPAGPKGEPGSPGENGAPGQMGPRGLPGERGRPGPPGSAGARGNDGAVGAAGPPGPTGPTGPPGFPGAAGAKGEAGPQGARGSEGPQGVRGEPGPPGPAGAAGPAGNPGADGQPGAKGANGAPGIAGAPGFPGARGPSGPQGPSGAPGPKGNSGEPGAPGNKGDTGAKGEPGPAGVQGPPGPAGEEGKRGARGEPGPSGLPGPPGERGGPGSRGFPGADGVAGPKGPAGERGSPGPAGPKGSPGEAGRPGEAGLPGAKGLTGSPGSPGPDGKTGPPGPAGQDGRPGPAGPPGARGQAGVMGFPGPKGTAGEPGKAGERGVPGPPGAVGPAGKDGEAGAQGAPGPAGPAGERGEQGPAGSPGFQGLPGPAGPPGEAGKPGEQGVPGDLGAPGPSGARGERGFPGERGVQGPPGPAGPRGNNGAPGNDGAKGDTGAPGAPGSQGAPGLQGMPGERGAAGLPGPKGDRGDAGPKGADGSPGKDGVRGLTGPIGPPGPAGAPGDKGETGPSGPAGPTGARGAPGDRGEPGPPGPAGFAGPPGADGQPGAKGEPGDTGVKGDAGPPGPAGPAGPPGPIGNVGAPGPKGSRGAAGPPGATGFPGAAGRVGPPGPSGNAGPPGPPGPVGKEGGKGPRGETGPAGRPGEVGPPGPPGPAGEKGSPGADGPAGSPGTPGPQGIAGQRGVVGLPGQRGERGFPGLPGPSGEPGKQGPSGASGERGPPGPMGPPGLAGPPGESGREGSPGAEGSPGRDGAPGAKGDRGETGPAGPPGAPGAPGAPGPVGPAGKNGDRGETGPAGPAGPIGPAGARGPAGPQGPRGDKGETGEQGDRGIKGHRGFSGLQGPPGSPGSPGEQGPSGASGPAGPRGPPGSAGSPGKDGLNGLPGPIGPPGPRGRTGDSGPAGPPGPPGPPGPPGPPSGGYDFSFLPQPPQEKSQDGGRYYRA
T4 sequence (P02466 86-1125, chain 2 of 2): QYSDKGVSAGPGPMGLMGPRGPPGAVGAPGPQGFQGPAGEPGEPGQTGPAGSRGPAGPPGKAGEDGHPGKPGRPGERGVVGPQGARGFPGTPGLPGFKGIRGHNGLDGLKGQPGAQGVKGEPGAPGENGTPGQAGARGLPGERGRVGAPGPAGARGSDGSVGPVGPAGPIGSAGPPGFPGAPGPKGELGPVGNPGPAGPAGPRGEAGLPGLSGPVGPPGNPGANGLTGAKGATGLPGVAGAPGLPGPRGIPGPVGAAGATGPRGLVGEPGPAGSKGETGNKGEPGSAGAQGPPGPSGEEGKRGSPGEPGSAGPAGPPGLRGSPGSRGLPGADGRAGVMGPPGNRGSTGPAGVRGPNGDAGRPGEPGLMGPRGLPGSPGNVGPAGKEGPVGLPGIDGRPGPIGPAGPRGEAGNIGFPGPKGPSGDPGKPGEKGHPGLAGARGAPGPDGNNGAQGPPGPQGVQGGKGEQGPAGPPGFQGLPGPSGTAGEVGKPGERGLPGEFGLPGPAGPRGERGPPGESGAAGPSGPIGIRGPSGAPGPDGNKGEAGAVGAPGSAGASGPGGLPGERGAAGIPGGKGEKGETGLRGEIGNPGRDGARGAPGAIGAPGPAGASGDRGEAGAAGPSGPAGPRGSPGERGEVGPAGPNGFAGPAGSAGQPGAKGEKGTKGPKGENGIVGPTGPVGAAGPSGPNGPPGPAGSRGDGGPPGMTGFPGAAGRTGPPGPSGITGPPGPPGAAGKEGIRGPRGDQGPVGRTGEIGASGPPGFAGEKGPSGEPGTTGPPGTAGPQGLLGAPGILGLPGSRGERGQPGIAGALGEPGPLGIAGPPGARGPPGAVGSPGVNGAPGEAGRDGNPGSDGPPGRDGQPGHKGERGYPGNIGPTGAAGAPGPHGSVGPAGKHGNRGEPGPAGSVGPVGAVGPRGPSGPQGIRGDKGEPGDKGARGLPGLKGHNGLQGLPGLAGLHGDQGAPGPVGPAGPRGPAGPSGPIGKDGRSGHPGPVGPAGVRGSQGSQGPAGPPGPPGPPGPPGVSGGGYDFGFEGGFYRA
T3 sequence (P02452 162-1218, chain 1 of 2): as the sequence (P02452 162-1218 limits assumed, chain 1 of 2) above
T3 sequence (P08123 80-1119, chain 2 of 2): as the sequence (P08123 80-1119 limits assumed, chain 2 of 2) above
T2 sequence (P02454 152-1207, chain 1 of 2): as the sequence (P02454 152-1207, chain 1 of 2) above
T2 sequence (P02466 86-1125, chain 2 of 2): as the sequence (P02466 86-1125, chain 2 of 2) above

## WQVCADSPGVITYCYTY (disulfide 4-14 (inferred), also called TN-11 peptide) [SEQ ID NO: 98]
Human collagen type I [1]
  Dried Human Collagen Binding: 5%

## YHACYQAGCYIY (disulfide 4-9 (inferred), also called TN-6 peptide) [SEQ ID NO: 108]
Rat collagen type I
  % Collagen Binding, Dried Rat: 12%
Human collagen type I [2]
  % Collagen Binding, Dried Human: 5%

## GWQCFGASDWHCTWV (disulfide 4-12, also called TN-9 peptide) [SEQ ID NO: 8]
Human collagen type I [1]
  Dried Human Collagen Binding: 9%

## {Gd^T″}-GQWTCSGDEYTWHCNYE-{GTE} (disulfide 5-14 (inferred), also called Comp ID NO; 837) [Compound ID 837]
[3]
  Human binding: 22%
[4]
  Rat binding: 10%

B1: Compound ID 864 (peptide)
peptide: {Gd^}-TGQWHCTTRFPHHYCLYG
modifications: not fully specified (some residues, bridges); printed as Gd^T.G.Q.W.H.C.T.T.R.F.P.H.H.y.C.L.Y.G; reading uncertain; also: series closure stated: disulfide
notes: also called Comp ID NO; 864
[3]
  Human binding: 64%

## {Gd^T″}-GK([Gly-Gd^T″])WHCTTLFPHHVCLYG (disulfide 5-14 (inferred), also called Comp ID NO; 966) [Compound ID 966]
[4]
  Rat binding: 8%

## RWSCVLDADGWVCSDN (disulfide 4-13 (inferred), also called TN-10 peptide) [SEQ ID NO: 66]
Human collagen type I [1]
  Dried Human Collagen Binding: 6%

## GWSCHSMDMQWHCDFS (disulfide 4-13 (inferred), also called TN-10 peptide) [SEQ ID NO: 67]
Human collagen type I [1]
  Dried Human Collagen Binding: 5%

## SWHCFLENHHWMCSDH (disulfide 4-13 (inferred), also called TN-10 peptide) [SEQ ID NO: 68]
Human collagen type I [1]
  Dried Human Collagen Binding: 5%

## ERNCVLNDFRWTCGGD (disulfide 4-13 (inferred), also called TN-10 peptide) [SEQ ID NO: 75]
Human collagen type I [1]
  Dried Human Collagen Binding: 10%

## GWQCQGTDSLDWKCLYM (disulfide 4-14 (inferred), also called TN-11 peptide) [SEQ ID NO: 77]
Human collagen type I [1]
  Dried Human Collagen Binding: 12%

## SWYCNNGSYGQWHCEHR (disulfide 4-14 (inferred), also called TN-11 peptide) [SEQ ID NO: 80]
Human collagen type I [1]
  Dried Human Collagen Binding: 6%
